Data on 15 sequences can be found in the DeepSol protein solubility set.

The nature of this series: soluble on expression in E. coli; label from the status in PepcDB or PDB records.
On to “MGSDKIHHHHHHENLYFQGMKKVFITTGTEHYLRQLMENYIGENVTLLQNFSQSLLYQESTGEKLFQEGKEYRVLQSSGSLKGFGIVVFEYIQLRDEEIPIFLQMYQHASLHFSETPGLQSTKLTKAMNTNQFLIVSFWDSEVFFQEWKKTPLHKEITSIMKKNNTQVGFSHEDIYHYPEFSHDAK”, for which the “soluble on expression in E. coli” value is given as “soluble”.

As to “GPGSMACARDHLRQTRTHQRHASTRDGQRMRAVSLAADPACTHPPTHTHTHIYTPIYVCRGFVCVTPQWRTELFNVVLLWRRAHTSLLSAACLCPYAQASPSCLHASFLSRLPRLSLSLSPCSCLHPHSTGVFAYIVFLRCRAATQNTSPVSSCVVRLVTRDLCAQSPTPPLPALCGHRNLVSLHRRKTPRLKRRVRTQATQRSDHRSSLIMPVFHAVMSVKESERVERIAPVKNRAWGLRFQCASCNEESTGMMYVNQTEQHERDGGMHNFVSKCKLCKADITADVLPVPAGTGYYSAEEENPANVIAAFEVRGGRPVELEIDNQWMIVTAGGGLFEDVDLSQEWYDYDESSQATVSVAGVSVDFEKSKKK”, the “soluble on expression in E. coli” value is “not soluble”.

Consider “MGSDKIHHHHHHILDSTIYLIGTAHFSKESQEDVSNTIRAVQPDFVMLELCPSRISIISMDEARLLSEAKDLNSQKIIQTMKQNGAIQGILHVLLLSMSAHVTRELSMAPGGEFRAAHRAAVATENCRVVLGDRPIQVTLQRALASLSIWQKIRFFFHVAFSHREKITAEEVERCKQRDLLEQLLAEMADDFPQLSQIFVEERDAYMTHALHMLVHRNSVEKRAQWLRGTTGQQFQPLTVVAVV”, for which the “soluble on expression in E. coli” value is reported as “not soluble”. Next, “MNNLPLLNDLRVFMLVARRAGFAAAAEELGVSPAFVSKRVSLLEQTLNVMLLHRTTRRVTITEEGERIYEWAQRILQDVDEMMDELSDVRQVPQGTLRIISSFGFGRRVVAPALSALALQYPQLELRFDVQDRLVDLVNEGVDLDIRVGDDIAPNLIARQLAANHRVLCASPQFLARHAPPKQLSDLAALPCLVIKERDHPFGVWQLHSKEGQHAIKVTGPLSSNHGEIVHQWCLDGQGIALRSWWDVRENIASGHLVQVLPDYWQPANVWAVYVSRLATSAKIRTTVEFLRHYFQLHYPQHEPTASAVGRGD”: “not soluble”. Turning to “MSLGSGHMIGVDVGETRVRVELFDLSLAELARTERPLAHKGRQAYDVGVIVGHIRDGVAEVLAAAGITAGELLGVGIGVPGIVERSGEGGAVVHGQTIGWDAVPLEHMLRLSGQLPEHVPYFIDNGAKTLGQAEMWFGAGRGAHNAVVVLFGSGVGACVVTDEVEHGRAVEWGHLTVRVQGRRCRCGALGCLEAYAGAEALLARWQEAGGQPPYDTDEETALTAMLAAAYPEDGRAPDPVAAAVLAETAEYLGAGLSDLINLFQPERILVGGWAGLQLGSRFLESVRTHALAYALRYPAGRVGIELGRLGPDAVTVGAAILPLADFFAHGGRRAEGHHHHHH”, the “soluble on expression in E. coli” value is “soluble”.

As for “MGSDKIHHHHHHMKVNLDYLGRLFTENELTEEERQLAEKLPAMRKEKGKLFCQRCNSTILEEWYLPIGAYYCRECLLMKRVRSDQTLYYFPQEDFPKQDVLKWRGQLTPFQEKVSEGLLQVVDKQKPTLVHAVTGAGKTEMIYQVVAKVINAGGAVCLASPRIDVCLELYKRLQQDFSCGIALLHGESEPYFRTPLVVATTHQLLKFYQAFDLLIVDEVDAFPYVDNPMLYHAVKNSVKENGLRIFLTATSTNELDKKVRLGELKRLNLPRRFHGNPLIIPKPIWLSDFNRYLDKNRLSPKLKSYIEKQRKTAYPLLIFASEIKKGEQLAEILQEQFPNEKIGFVSSVTEDRLEQVQAFRDGELTILISTTILERGVTFPCVDVFVVEANHRLFTKSSLIQIGGRVGRSMDRPTGDLLFFHDGLNASIKKAIKEIQMMNKEAGL”, the “soluble on expression in E. coli” value was “not soluble”. Next, “MGSDKIHHHHHHMRVFVARQPIFNRKEQVVAYELLYRESEENVYSAKDGDQATTDLVINSFLNIGIEKLTEGKRCFVNFTESLMFSNLPTSFNPKQLVIEILEDIPITPALISRCKELKKMGYMLALDDFYAINPQDEDLLEKLMSYIDILKIDFLKTTRMERRTILQTYGCRGLIFLAEKVETRKEYKQAVQDGFQLFQGYFFSEPRIISGHDLSTHFYSYYELLNELSKEQPNIKRVTEYIERDLSLSYQILKFLNSSHSRLSQKIESIQQAIMLLGFNEIKRWIYILSFKDLSRKGHSSKHEIIKISLIRAKLCELLARKTSRPQPASYMLIGMFSLIDTLLHREIEEIVQELPLKDEVGQALLGHQNDYYQMLELVKLIESNNWDTCSELGNQLDKEEAYECYLEALEWCHNLMDAK”: “not soluble”; “MQQERTVKVSKYLSKHLRHQPERIGLTPDEGGWVEIDALVAAAAAHGFPFTRQELDHVVATNDKRRFAVEGTRIRASQGHSIAVDLRLPVATPPPYLYHGTVARHLEAIRAEGLRPMNRHDVHLSPDRETATRVGARRGRPVVLPVDAATMHRDGHVFHVSANGVWLTQHVPSRYLRFPAPHLEHHHHHH”: “not soluble”. Next, “MSSSPVKRQRMESALDQLKQFTTVVADTGDFHAIDEYKPQDATTNPSLILAAAQMPAYQELVEEAIAYGRKLGGSQEDQIKNAIDKLFVLFGAEILKKIPGRVSTEVDARLSFDKDAMVARARRLIELYKEAGISKDRILIKLSSTWEGIQAGKELEEQHGIHCNMTLLFSFAQAVACAEAGVTLISPFVGRILDWHVANTDKKSYEPLEDPGVKSVTKIYNYYKKFSYKTIVMGASFRNTGEIKALAGCDFLTISPKLLGELLQDNAKLVPVLSAKAAQASDLEKIHLDEKSFRWLHNEDQMAVEKLSDGIRKFAADAVKLERMLTERMFNAENGK”: “soluble”. In the case of “MNNNLLIIAGPTAVGKSDLSVDLAKKLNGEIISVDSMQIYKYMDIGSAKISKEEMGGIPHYLIDFVDPSKEFSVAEFKDLTTEKIKDIQSRGKLPILVGGTGLYINSIICNMNFAESDKDEEYREELEKIANEHGNEYLHEMLKDIDLESYNSIHFNNRKRVIRALETYKLTGKPFSSFKAKNSIYETPYNIYYYVLNMDRAKLYDRINKRVDIMFEKGLLEEVKNLKAMGLTDDMQSMKGIGYKEVLYYLDGKISLEQCIEMIKQGSRNYAKRQLTWFRKDPRAIFIDKDTFASEEDISSKIINDIINSMAGDPNSLEHHHHHH”, the “soluble on expression in E. coli” value is listed as “not soluble”. Next, “MESPLGSDLARLVRIWRALIDHRLKPLELTQTHWVTLHNIHQLPPDQSQIQLAKAIGIEQPSLVRTLDQLEDKGLISRQTCASDRRAKRIKLTEKADALIAEMEEVIHKTRGEILAGISSEEIELLIKLIAKLEHNIMELHSHD”: “not soluble”; “SSYCKQEGKDCIIFVTKEDHEAPSNAELVEDDPNDPYEDHGLILPNGDINWNCPCLGGMASGPCGQQFKDAFSCFHYSKEEIKGSDCVENFRGMQECMQKYPELYPQEDDNDSAPSGGANTAPTDSLPASSTDSTAAAATENPATS”: “soluble”. For “MTVKQTVEVTNKLGMHARPAMKLFELMQGFDAEVLLRNDEGTEAEANSVIALLMLDSAKGRQIEIEATGPQEVEALAAVIALFNSGFDED”, the “soluble on expression in E. coli” value is “not soluble”. Turning to “MIKEQVKSLWKLCFDDSEAFIELYFRLRYNNEVNLAIQSGEEVIAALQMLPYPMTFCNKIVPTSYISGACTHPDYRAKGVMRELLSQSFARMLRNGVLFSTLIPAEPWLFGYYAKTGYTPAFRISHKVFSLSELTIGPEPDTMIEETTEYQEDYYQYLTGKLSERACCLQHTPTDFKVVLADLALTQNTVLIARKDNRVTGIAVVYKHDDSSYINELFADNEAVRAQLLYRAGLRNGTERIILQLPPVESLPSVPLGMARIIDARAVLQLYAAGCPEVEMNIELTDEQLSVNNGYYYLCKGKCMTSEVRLPGVHTRMTIAELSEKILGEMQPYMSLMMN”, the “soluble on expression in E. coli” value is “not soluble”. Next, “MSKQENIISHNTDSSLLNTVMQQMKERIINEGDKPHVTVETQLKILQELSQFGFGQFLIKNQGINGYWTHYMLTHPWFGRKTGLNNSREPLSNMECFLLDKAPTMLATQQRFELFLQENQKALVNGATLASIPCGMLGELLYLDFNGINNIQLMGIDYDQAALEDANALAKERNLDRFTTLVCRNAWELNIQEEFDLISSNGLNIYEPDDNKVLDLYQQFHTALKKGGKLVTSFLTPPPHLSSQCEWIFNKINPEDLLLQRIIFSDILNAKFQCYRSSQQTQKQLALAGFKNIHFLYDEAHLFPTVIAEK”: “not soluble”.
